# Assay results reported in publication PMC5537066, “Dimerization facilitates the conformational transitions for bacterial phosphotransferase enzyme I autophosphorylation in an allosteric manner” (FEBS Open Bio, 2017).
# B1: C-terminal domain of enzyme I with the G356S mutation, EIC(G356S) (domain or fragment)
# chain: not shown
# notes: C-terminal dimerization domain (EIC) of enzyme I, E. coli, residues 231-575, with G356S; also called EIC(G365S) (misprint in the text); source: E. coli BL21star (DE3), purified (DEAE or HisTrap, Superdex, monoQ)
# B2: Enzyme I (EI) with the active site H189A mutation, EI(1-575, H189A) (enzyme)
# chain: not shown
# notes: Enzyme I (EI) of the bacterial phosphotransferase system, E. coli, full length EI(1-575), with H189A; also called EIA; EI(H189A); source: E. coli BL21star (DE3), purified (DEAE or HisTrap, Superdex, monoQ)
# B3: C-terminal domain of enzyme I, EIC(231-575) (domain or fragment)
# chain: not shown
# notes: C-terminal dimerization domain (EIC) of enzyme I, E. coli, residues 231-575, includes part of the connecting helix 231-260; source: E. coli BL21star (DE3), purified (DEAE or HisTrap, Superdex, monoQ)
# B4: Enzyme I with the H189A and G356S mutations, EIA(G356S) (enzyme)
# chain: not shown
# notes: Enzyme I (EI) of the bacterial phosphotransferase system, E. coli, full length EI(1-575), with H189A and G356S; also called EI(G356S); source: E. coli BL21star (DE3), purified (DEAE or HisTrap, Superdex, monoQ)
# Columns and labels:
# [1] = target: the molecule itself; experiment: SEC-MALS; 200 uM protein injected on a WTC-0303 column, buffer A with 10 mM PEP, 25 °C; dimer to monomers
# [2] = target: the molecule itself; experiment: SEC-MALS; 200 uM protein injected on a WTC-0303 column, buffer A (20 mM Tris/HCl pH 7.4, 100 mM NaCl, 2 mM β-mercaptoethanol, 4 mM MgCl2), 25 °C, without PEP; 50 uM elution concentration; KD (dimer to monomers) estimated from the dimer fraction, semiquantitative
Protein,percent dimer [1],Kd [2],stoichiometry N [2],stoichiometry N [1]
B1,~80%,≥ 5 µM,2,
B2,> 90%,~0.4 µM,2,
B3,,,2,
B4,> 90%,~30 µM,,2
